From article PMC4213023, “Structural Basis of Substrate Selectivity of E. coli Prolidase” (PLoS ONE, 2014) come the findings set out here.

For data set [1], the target named is Escherichia coli prolidase PepQ R370E (Escherichia coli) (UniProt P21165).
The target in data set [2] is Escherichia coli prolidase PepQ, wild type (Escherichia coli) (UniProt P21165).
Data set [3] relates to C[C@H](N)C(=O)N1CCC[C@H]1C(=O)O. Put plainly: purified protein. In kind it is biochemical, Escherichia coli. The following applies: 50 mM Tris pH 8, 20 mM Mg(OAc)2, 25°C, 1 µM AlaDH and 2 mM NAD+ (coupling).
Data set [4] has as its system C[C@H](N)C(=O)N1CCC[C@H]1C(N)=O. Put plainly: purified protein. Type of data set: biochemical, Escherichia coli. The settings on record: 50 mM Tris pH 8, 20 mM Mg(OAc)2, 25°C, 1 µM AlaDH and 2 mM NAD+ (coupling).
Data set [5] deals with the molecule itself. Put plainly: crystal structure; PepQ 12 mg/ml in 50 mM Tris pH 7.4, 5 mM MgCl2, 5 mM DTT; hanging drop at 4°C, 20% PEG MME 5000, 0.1 M Bis-Tris pH 6.5; one dimer in the asymmetric unit.
Data set [6] concerns the molecule itself. Put plainly: SEC; analytical gel filtration, Superose 6, PepQ 10 nM in 50 mM Tris pH 7.4, 50 mM KOAc, 10 mM Mg(OAc)2, 2 mM DTT, 0.4 mL/min, tryptophan fluorescence detection. (In general: SEC sorts molecules by how far they enter the pores of the column.)

For orientation: Km means the concentration of substrate that gives half-maximal velocity. The term kcat denotes the maximal rate divided by the concentration of active sites. Broadly, the kcat/Km is the second-order rate constant that governs catalysis at low substrate concentration. Usually stoichiometry N stands for the number of molecules, sites or subunits per partner or assembly.

As for AlaPro-CONH2 substrate dipeptide, the Km (mM) of hydrolysis of the dipeptide, coupled to AlaDH/NAD+ oxidation of alanine, 25°C in data set [1] came out at 4.7 mM; in data set [2] it was 6.6 mM.

With AlaPro-COOH substrate dipeptide, the Km (mM) of hydrolysis of the dipeptide, coupled to AlaDH/NAD+ oxidation of alanine, 25°C was found to be 127 mM in data set [1] and 1.2 mM in data set [2].

Take E. coli PepQ (Escherichia coli K-12): in data set [3], the Michaelis constant (Km) was found to be 1.2 ± 0.1 mM, the kcat is 139 ± 2.5 s⁻¹ and the kcat/Km was determined as 120000 M⁻¹ s⁻¹. Moreover, in data set [4], the Michaelis-Menten constant (Km) worked out at 6.6 ± 0.5 mM, the kcat is 80.7 ± 19.7 s⁻¹ and the kcat/Km came out at 12000 M⁻¹ s⁻¹.

For “E. coli PepQ (Escherichia coli K-12; R370E)”, in data set [4], the Km came to 4.7 ± 0.2 mM, the turnover number (kcat) came out at 1.1 ± 0.4 s⁻¹ and the kcat/Km amounted to 230 M⁻¹ s⁻¹.

B1: Escherichia coli prolidase PepQ, wild type (enzyme, UniProt P21165 1-443, looked up)
chain: MESLASLYKNHIATLQERTRDALARFKLDALLIHSGELFNVFLDDHPYPFKVNPQFKAWVPVTQVPNCWLLVDGVNKPKLWFYLPVDYWHNVEPLPTSFWTEDVEVIALPKADGIGSLLPAARGNIGYIGPVPERALQLGIEASNINPKGVIDYLHYYRSFKTEYELACMREAQKMAVNGHRAAEEAFRSGMSEFDINIAYLTATGHRDTDVPYSNIVALNEHAAVLHYTKLDHQAPEEMRSFLLDAGAEYNGYAADLTRTWSAKSDNDYAQLVKDVNDEQLALIATMKAGVSYVDYHIQFHQRIAKLLRKHQIITDMSEEAMVENDLTGPFMPHGIGHPLGLQVHDVAGFMQDDSGTHLAAPAKYPYLRCTRILQPGMVLTIEPGIYFIESLLAPWREGQFSKHFNWQKIEALKPFGGIRIEDNVVIHENNVENMTRDLKLA
notes: E. coli PepQ (prolidase), gene PCR amplified from chromosomal E. coli DNA; Cloned NdeI/XhoI into pET21a; Two Mg(II) ions per active site in the crystal; also called E. coli PepQ; WT; source: E. coli BL21[DE3], pET21a, purified (fast-flow Q anion exchange, phenyl-sepharose, ammonium sulfate precipitation)
On to B1, for which the “stoichiometry N” value in data set [5] turned out to be 2.

B2: Escherichia coli prolidase PepQ R370E (enzyme, UniProt P21165 1-443, looked up)
chain: MESLASLYKNHIATLQERTRDALARFKLDALLIHSGELFNVFLDDHPYPFKVNPQFKAWVPVTQVPNCWLLVDGVNKPKLWFYLPVDYWHNVEPLPTSFWTEDVEVIALPKADGIGSLLPAARGNIGYIGPVPERALQLGIEASNINPKGVIDYLHYYRSFKTEYELACMREAQKMAVNGHRAAEEAFRSGMSEFDINIAYLTATGHRDTDVPYSNIVALNEHAAVLHYTKLDHQAPEEMRSFLLDAGAEYNGYAADLTRTWSAKSDNDYAQLVKDVNDEQLALIATMKAGVSYVDYHIQFHQRIAKLLRKHQIITDMSEEAMVENDLTGPFMPHGIGHPLGLQVHDVAGFMQDDSGTHLAAPAKYPYLECTRILQPGMVLTIEPGIYFIESLLAPWREGQFSKHFNWQKIEALKPFGGIRIEDNVVIHENNVENMTRDLKLA
notes: E. coli PepQ (prolidase) with R370E, made by site-directed mutagenesis of the wild-type construct (domains of the parent printed as 1-159 and 160-443); Same construct as m1 apart from R370E; PDB 4QR8 is the wild-type parent; also called R370E PepQ; charge-reversed mutant of PepQ; source: E. coli BL21[DE3], pET21a, purified following the protocols used for the wild-type enzyme
As for B2, the binding result in data set [6] is “binds”.
